Laboratory results published in US20250170247A1, “CONJUGATES, AND USES THEREOF” (CITY UNIVERSITY OF HONG KONG, priority 2023, published 2025).
{5Hexynyl} = hexynyl group used for click conjugation

Experiments:
[1] = target: T1, RHAU53 (Homo sapiens, UniProt Q9H2U1); settings: It is known; cited from earlier work
T1 construct: RHAU-specific motif containing 53 amino acids (RHAU53)
T1 sequence (Q9H2U1 53-105 limits assumed): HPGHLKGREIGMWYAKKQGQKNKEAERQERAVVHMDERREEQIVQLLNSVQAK

[2] = target: T2, DHX36 (RHAU), full-length (UniProt Q9H2U1 Q9H2U1:1-1008); experiment: EMSA; strong binding, data not shown; settings: G4
T2 sequence: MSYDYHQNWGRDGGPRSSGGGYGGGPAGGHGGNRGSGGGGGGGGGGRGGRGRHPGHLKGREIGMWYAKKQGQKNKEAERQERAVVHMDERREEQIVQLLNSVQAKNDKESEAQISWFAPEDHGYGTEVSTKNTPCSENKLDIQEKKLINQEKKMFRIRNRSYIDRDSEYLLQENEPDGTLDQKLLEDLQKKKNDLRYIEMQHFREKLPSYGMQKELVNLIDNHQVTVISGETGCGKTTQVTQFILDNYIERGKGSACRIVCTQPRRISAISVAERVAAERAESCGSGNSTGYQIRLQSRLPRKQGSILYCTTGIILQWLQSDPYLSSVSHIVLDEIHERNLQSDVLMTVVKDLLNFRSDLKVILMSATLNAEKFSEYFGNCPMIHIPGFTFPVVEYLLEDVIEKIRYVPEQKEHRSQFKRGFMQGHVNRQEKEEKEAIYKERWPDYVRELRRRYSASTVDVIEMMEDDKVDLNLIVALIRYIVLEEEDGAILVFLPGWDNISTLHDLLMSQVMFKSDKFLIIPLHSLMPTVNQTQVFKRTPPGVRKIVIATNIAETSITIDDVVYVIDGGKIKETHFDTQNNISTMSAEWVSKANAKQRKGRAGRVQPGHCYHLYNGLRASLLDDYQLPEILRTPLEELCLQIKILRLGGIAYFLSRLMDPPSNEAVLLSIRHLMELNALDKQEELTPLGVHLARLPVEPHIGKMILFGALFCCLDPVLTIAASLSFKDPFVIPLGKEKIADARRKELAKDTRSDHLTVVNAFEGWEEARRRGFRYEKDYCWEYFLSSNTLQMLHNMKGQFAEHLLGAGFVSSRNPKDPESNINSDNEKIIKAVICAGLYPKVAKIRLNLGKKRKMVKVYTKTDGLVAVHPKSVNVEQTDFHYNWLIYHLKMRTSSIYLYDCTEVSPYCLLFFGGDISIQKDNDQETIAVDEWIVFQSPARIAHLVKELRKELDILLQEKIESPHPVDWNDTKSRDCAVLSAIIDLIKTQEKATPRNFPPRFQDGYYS

[3] = target: T2, DHX36 (RHAU), full-length; experiment: MST; 25 mM Tris-HCl pH 7.5, 150 mM KCl, 1 mM MgCl2, 37 C; settings: label: 3'-FAM; G4
Procedure: Before the reaction, FAM labeled G4-compound conjugate was heated at 75° C. for 5 minutes and cooled down on the ice for 10 minutes. DHX36 protein was serially diluted to 16 samples from the highest concentration of […]. FAM-labeled oligonucleotides (40 nM) were added to each sample and incubated in Tris-HCl buffer (25 mM Tris-HCl, pH 7.5, 150 mM KCl, and 1 mM MgCl₂) at 37° C. for 30 minutes. Binding affinity was carried out on capillary tubes using an MST machine. The curve fitting and Kd determination were obtained from software.
Full-length DHX36 protein was then used to further confirm the recognition of the present rG4-PROTAC to G4BP via MST binding assay. […] As described above, the affinity of A_dG4_FAM to RHAU53 was nearly 4.7 times higher (Kd=[…]) than that of FAM_rG4_A (FIG. 2B). The interaction between A_dG4_FAM and DHX36 protein quantified by MST (Kd=303±55; FIG. 2D) confirmed the result, indicating a relatively weaker interaction with DHX36.

[4] = target: T3, RHAU53 peptide (53-aa RHAU/DHX36 G4-binding fragment) (UniProt Q9H2U1 Q9H2U1:53-105); experiment: EMSA; 25 mM Tris-HCl pH 7.5, 150 mM KCl, 1 mM MgCl2, 37 C; settings: label: 3'-FAM
T3 chain: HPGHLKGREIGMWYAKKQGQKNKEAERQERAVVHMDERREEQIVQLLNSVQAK
Procedure: All oligonucleotides were heated for 5 minutes at 75° C. and cooled down for 10 minutes on ice. Different concentrations of RHAU53 peptide (0-2 μM) and 5-carboxyfluorescein (FAM)-labeled oligonucleotides or G4-compound conjugate (30 nM) were mixed in the Tris-HCl buffer (25 mM Tris-HCl, pH 7.5, 150 mM KCl and 1 mM MgCl₂). The mixture was incubated at 37° C. for 30 minutes, and 5% glycerol was then added to each sample. Bound and unbound RNAs were separated on 10% native polyacrylamide gel in 0.5× Tris/Borate/EDTA (TBE) at 4° C., 150 V for 30 minutes. The gel was scanned by scanner at 500 V and quantified by software.
To evaluate the target recognition ability of the rG4-PROTACs, the binding assay of FAM_rG4_A to RHAU53 peptide was performed by EMSA. RHAU53 peptide, the truncated DHX36 fragment, is the most important core protein domain required for rG4-RHAU interaction.

hTERC rG4: human telomerase RNA component rG4, 5′-GGGUUGCGGAGGGUGGGCCU-3′ (SEQ ID NO: 1), the warhead targeting G4BP (RNA, 5' {5Hexynyl}, backbone not given here; further chemistry not fully specified)
affinity for RHAU53 [1]: nanomolar affinity

CGGGGCGGGUGGGGAGGGGU (ssRNA) [APP 3'UTR rG4]
binding result [2]: binds

GGGUUGCGGAGGGUGGGCCU (ssRNA, 5'-hexynyl clicked to azide-modified AHPC) [FAM_rG4_A (hTERC rG4 WT-AHPC conjugate)]
Kd [3]: 79.7 nM
Kd [4]: 67.4 nM
